Laboratory results: US20230346885A1 (published 2023)
Residue numbers refer to the chain shown, from its start. One block for each binder: values may come before it.

Experiments:
Test in all cases: binding, other
[1] = target: T1, RLN1 peptide on HLA (human)
T1 peptide: LLLNQFSRA

[2] = target: T2, PAEP peptide on HLA (human)
T2 peptide: AMATNNISL

[3] = target: T3, PAGE5 peptide on HLA (human)
T3 peptide: TLPTFDPTKV

[4] = target: T4, SAGE1 peptide on HLA (human)
T4 peptide: GLYSTVPHNV

[5] = target: T5, RLN1 peptide on HLA (human)
T5 peptide: FIANLPPELKA

[6] = target: T6, SAGE1 peptide on HLA (human)
T6 peptide: VLIQQLEKA

[7] = target: T7, PAGE2 peptide on HLA (human)
T7 peptide: IMPTFDLTKV

[8] = target: T8, SAGE1 peptide on HLA (human)
T8 peptide: TVLPGLTYL

B1: TCR of SEQ ID NOs 531 and 532 (TCR, V domains shown)
Valpha: KQEVTQIPAALSVPEGENLVLNCSFTDSAIYNLQWFRQDPGKGLTSLLLIQSSQREQTSGRLNASLDKSSGRSTLYIAASQPGDSATYLCAVLSNFGNEKLTFGTGTRLTIIP
Vbeta: NAGVTQTPKFRILKIGQSMTLQCTQDMNHNYMYWYRQDPGMGLKLIYYSVGAGITDKGEVPNGYNVSRSTTEDFPLRLLSAAPSQTSVYFCASTREAGLDYGYTFGSGTRLTVV
binding result [1]: recognises

B2: TCR of SEQ ID NOs 465 and 466 (TCR, V domains shown)
Valpha: KQEVTQIPAALSVPEGENLVLNCSFTDSAIYNLQWFRQDPGKGLTSLLLIQSSQREQTSGRLNASLDKSSGRSTLYIAASQPGDSATYLCAVRSYNQFYFGTGTSLTVIP
Vbeta: NAGVTQTPKFQVLKTGQSMTLQCAQDMNHEYMSWYRQDPGMGLRLIHYSVGAGITDQGEVPNGYNVSRSTTEDFPLRLLSAAPSQTSVYFCASSPGGPSTEAFFGQGTRLTVV
binding result [2]: recognises

B3: TCR of SEQ ID NOs 493 and 494 (TCR, V domains shown)
Valpha: B1 Valpha with L93G, S94N, N95S, F96G, N98Y, E99Q, L101V, R108K, T110Q, I111V
Vbeta: B2 Vbeta with P95Y, G96S, G97T, P98G, T100Y, A102Q, F103Y, Q106P, V113T
binding result [3]: recognises

B4: TCR of SEQ ID NOs 491 and 492 (TCR, V domains shown)
Valpha: B1 Valpha with L93S, S94N, N95S, F96G, N98Y, E99Q, L101V, R108K, T110Q, I111V
Vbeta: B2 Vbeta with N62D, P95Y, G96S, G97T, P98G, T100Y, A102Q, F103Y, Q106P, V113T
binding result [3]: recognises

B5: TCR of SEQ ID NOs 533 and 534 (TCR, V domains shown)
Valpha: B2 Valpha with R93S, S94G, N96S, Q97T, F98L, Y99T, T102K, S105M, T107L, I109S
Vbeta: NAGVTQTPKFQVLKTGQSMTLQCAQDMNHEYMSWYRQDPGMGLRLIHYSVGAGITDQGEVPNGYNVSRSTTEDFPLRLLSAAPSQTSVYFCASSEGPFSEAFFGQGTRLTVV
binding result [4]: recognises

B6: TCR of SEQ ID NOs 517 and 518 (TCR, V domains shown)
Valpha: B2 Valpha with V92P, R93G, S94G, N96Q, Q97K, F98V, Y99T, S105K, T107Q
Vbeta: B5 Vbeta with S94R, E95R, G96D, F98L, S99G, E100G, A101Y, F102T, Q105S
binding result [5]: recognises

B7: TCR of SEQ ID NOs 537 and 538 (TCR, V domains shown)
Valpha: B2 Valpha with R93G, S94G, N96D, Q97K, F98V, Y99I, T102P, T107S
Vbeta: B5 Vbeta with S94R, E95L, P97Q, S99G, E100Q
binding result [4]: recognises

B8: TCR of SEQ ID NOs 535 and 536 (TCR, V domains shown)
Valpha: B2 Valpha with R93G, S94G, N96Q, Q97K, F98V, Y99T, S105K, T107Q
Vbeta: NAGVTQTPKFRVLKTGQSMTLLCAQDMNHNYMYWYRQDPGMGLKLIYYSVGAGITDKGEVPNGYNVSRSTTEDFPLRLELAAPSQTSVYFCASRVDTLGEAFFGQGTRLTVV
binding result [4]: recognises

B9: TCR of SEQ ID NOs 515 and 516 (TCR, V domains shown)
Valpha: B2 Valpha with R93V, Y95N, Q97D, F98M, Y99R, T102A, S105R, I109K
Vbeta: NAGVTQTPKFQVLKTGQSMTLQCAQDMNHEYMSWYRQDPGMGLRLIHYSVGAGITDQGEVPNGYNVSRSTTEDFPLRLLSAAPSQTSVYFCASSLHSPVQGDYGYTFGSGTRLTVV
binding result [5]: recognises

B10: TCR of SEQ ID NOs 495 and 496 (TCR, V domains shown)
Valpha: B1 Valpha with L93G, S94N, N95S, F96G, N98Y, E99Q, L101V, R108K, T110Q, I111V
Vbeta: B2 Vbeta with P95Y, G96S, G97T, P98G, T100Y, E101G, A102Y, F103T, Q106S
binding result [3]: recognises

B11: TCR of SEQ ID NOs 463 and 464 (TCR, V domains shown)
Valpha: KQEVTQIPAALSVPEGENLVLNCSFTDSAIYNLQWFRQDPGKGLTSLLLIQSSQREQTSGRLNASLDKSSGRSTLYIAASQPGDSATYLCAVQGGSEKLVFGKGTKLTVNP
Vbeta: NAGVTQTPKFQVLKTGQSMTLQCAQDMNHNSMYWYRQDPGMGLRLIYYSASEGTTDKGEVPNGYNVSRLNKREFSLRLESAAPSQTSVYFCASSEEWSYGYTFGSGTRLTVV
binding result [2]: recognises

B12: TCR of SEQ ID NOs 547 and 548 (TCR, V domains shown)
Valpha: B11 Valpha with Q93R, G94Q, S96Y, E97S, K98T, V100T, K106M, T108L, N110S
Vbeta: NAGVTQTPKFQVLKTGQSMTLQCAQDMNHNSMYWYRQDPGMGLRLIYYSASEGTTDKGEVPNGYNVSRLNKREFSLRLESAAPSQTSVYFCASSYSYPLAVGELFFGEGSRLTVL
binding result [6]: recognises

B13: TCR of SEQ ID NOs 485 and 486 (TCR, V domains shown)
Valpha: KQEVTQIPAALSVPEGENLVLNCSFTDSAIYNLQWFRQDPGKGLTSLLLIQSSQREQTSGRLNASLDKSSGRSTLYIAASQPGDSATYLCAVRLRGSARQLTFGSGTQLTVLP
Vbeta: NAGVTQTPKFRVLKTGQSMTLLCAQDMNHEYMYWYRQDPGMGLRLIHYSVGEGTTAKGEVPDGYNVSRLKKQNFLLGLESAAPSQTSVYFCASSYSIEFTEAFFGQGTRLTVV
binding result [7]: recognises

Results, then the binder that gave them:

binding result [1]: recognises
B14: TCR of SEQ ID NOs 527 and 528 (TCR, V domains shown)
Valpha: B13 Valpha with L94P, R95S
Vbeta: B5 Vbeta with E95Y, P97V, F98Y, S99T

binding result [7]: recognises
B15: TCR of SEQ ID NOs 487 and 488 (TCR, V domains shown)
Valpha: B13 Valpha with V92L, R93G, L94Y
Vbeta: NAGVTQTPKFRVLKTGQSMTLLCAQDMNHEYMYWYRQDPGMGLRLIHYSVGEGTTAKGEVPDGYNVSRLNKREFSLRLESAAPSQTSVYFCASSVGYPGELFFGEGSRLTVL

binding result [7]: recognises
B16: TCR of SEQ ID NOs 489 and 490 (TCR, V domains shown)
Valpha: KQEVTQIPAALSVPEGENLVLNCSFTDSAIYNLQWFRQDPGKGLTSLLLIQSSQREQTSGRLNASLDKSSGRSTLYIAASQPGDSATYLCAVRGDYKLSFGAGTTVTVRA
Vbeta: NAGVTQTPKFQVLKTGQSMTLQCAQDMNHNSMYWYRQDPGMGLRLIYYSASEGTTDKGEVPNGYNVSRLNKREFSLRLESAAPSQTSVYFCASSDPLGGLYGYTFGSGTRLTVV

binding result [8]: recognises
B17: TCR of SEQ ID NOs 543 and 544 (TCR, V domains shown)
Valpha: B16 Valpha with R93G, G94D
Vbeta: B16 Vbeta with D95E, P96G, L97W, L100R, Y101T, G102E, Y103A, T104F, S107Q

binding result [6]: recognises
B18: TCR of SEQ ID NOs 545 and 546 (TCR, V domains shown)
Valpha: B16 Valpha with G94D
Vbeta: NAGVTQTPKFRVLKTGQSMTLLCAQDMNHEYMYWYRQDPGMGLRLIHYSVGEGTTAKGEVPDGYNVSRLKKQNFLLGLESAAPSQTSVYFCASSYGPGQIYGYTFGSGTRLTVV

binding result [6]: recognises
B19: TCR of SEQ ID NOs 549 and 550 (TCR, V domains shown)
Valpha: B16 Valpha with R93S, G94N
Vbeta: NAGVTQTPKFRVLKTGQSMTLLCAQDMNHEYMYWYRQDPGMGLRLIHYSVGEGTTAKGEVPDGYNVSRLKKQNFLLGLESAAPSQTSVYFCASSYSSRIYNEQFFGPGTRLTVL

binding result [8]: recognises
B20: TCR of SEQ ID NOs 541 and 542 (TCR, V domains shown)
Valpha: B16 Valpha with R93D, G94S, D95W, Y96G, S99Q, T105Q, T107V, R109T, A110P
Vbeta: NAGVTQTPKFQVLKTGQSMTLQCAQDMNHEYMSWYRQDPGMGLRLIHYSVGAGITDQGEVPNGYNVSRSTTEDFPLRLLSAAPSQTSVYFCASSSLGLGDYGYTFGSGTRLTVV

binding result [5]: recognises
B21: TCR of SEQ ID NOs 519 and 520 (TCR, V domains shown)
Valpha: KQEVTQIPAALSVPEGENLALNCSFTDSAIYNLQWFRQDPGKGLTSLLLIQSSQREQTSGRLNASLDKSSGRSTLYIAASQPGDSATYLCAVNAGGTSYGKLTFGQGTILTVHP
Vbeta: NAGVTQTPKFQVLKTGQSMTLQCAQDMNHNSMYWYRQDPGMGLRLIYYSASEGTTDKGEVPNGYNVSRLNKREFSLRLESAAPSQTSVYFCASSYWREYYEQYFGPGTRLTVT

binding result [1]: recognises
B22: TCR of SEQ ID NOs 529 and 530 (TCR, V domains shown)
Valpha: KQEVTQIPAALSVPEGENLVLNCSFTDSAIYNLQWFRQDPGKGLTSLLLIQSSQREQTSGRLNASLDKSSGRSTLYIAASQPGDSATYLCAVRPSTDSWGKLQFGAGTQVVVTP
Vbeta: B5 Vbeta with E95P, G96T, P97G, F98Y, S99Y, E100G, A101Y, F102T, Q105S

binding result [8]: recognises
B23: TCR of SEQ ID NOs 539 and 540 (TCR, V domains shown)
Valpha: KQEVTQIPAALSVPEGENLVLNCSFTDSAIYNLQWFRQDPGKGLTSLLLIQSSQREQTSGRLNASLDKSSGRSTLYIAASQPGDSATYLCAVRVTGANNLFFGTGTRLTVIP
Vbeta: NAGVTQTPKFQVLKTGQSMTLQCAQDMNHEYMSWYRQDPGMGLRLIHYSVGAGITDQGEVPNGYNVSRLNKREFSLRLESAAPSQTSVYFCASRPVGGDYTGELFFGEGSRLTVL
